Reference: publication PMC10034513
Each block holds one substance with its values, some of them ahead of it.

Key:
[1] = target: P74-26 TTP L229A variant (bacteriophage P74-26); test: light scattering of tube assembly; filtered TTP at ~1 mg/ml, scattering at 350 nm over time; wild type at 4, 20, 25, 37 and 50 °C and a concentration series at 37 °C; variants at 20 °C
[2] = target: P74-26 TTP Q167A variant (bacteriophage P74-26); test: SEC-MALS; 100 μl at 1 mg/ml, filtered through 0.22 μm before loading; 50 mM Tris pH 8.0, 150 mM KCl, 5 mM βME, 5% glycerol; run at room temperature
[3] = target: P74-26 tail tube protein (TTP), gp93, in tails of purified virions (bacteriophage P74-26); test: cryo-EM structure; tails of purified P74-26 virions, segmented helical reconstruction (C3, rise 40.25 Å, twist -44.75°)
[4] = SEC-MALS; 100 μl at 1 mg/ml, filtered through 0.22 μm before loading; 50 mM Tris pH 8.0, 150 mM KCl, 5 mM βME, 5% glycerol; run at room temperature
[5] = target: P74-26 tail tube protein (TTP), gp93, recombinant wild type (bacteriophage P74-26); test: light scattering of tube assembly; filtered TTP at ~1 mg/ml, scattering at 350 nm over time; wild type at 4, 20, 25, 37 and 50 °C and a concentration series at 37 °C; variants at 20 °C
[6] = target: P74-26 tail tube protein (TTP), gp93, recombinant wild type (bacteriophage P74-26); test: SEC-MALS; 100 μl at 1 mg/ml, filtered through 0.22 μm before loading; 50 mM Tris pH 8.0, 150 mM KCl, 5 mM βME, 5% glycerol; run at room temperature

tube formation rate relative to WT (% of the WT rate) [1]: 10
Substance: P74-26 TTP L229A variant (natural protein)

stoichiometry N [2]: 3
Substance: P74-26 TTP Q167A variant (natural protein)

stoichiometry N [3]: 3
Substance: P74-26 tail tube protein (TTP), gp93, in tails of purified virions (natural protein)

Substance: P74-26 tail tube protein (TTP), gp93, recombinant wild type
mass fraction of the monomer peak [4]: ∼76% mass fraction

fast-phase tube growth rate at 37 °C relative to the 20 °C rate (fold (× the 20 °C rate)) [5]: 68 | fast-phase tube growth rate at 50 °C relative to the 20 °C rate (fold (× the 20 °C rate)) [5]: 3520 | mass fraction of the hexamer peak [6]: 6% | stoichiometry N [6]: 6
Substance: P74-26 tail tube protein (TTP), gp93, recombinant wild type (natural protein)
